Measured values from the supplement of paper PMC9170038.

Tested on: MS2 coat protein
Assay: apparent KD of MS2 coat protein; higher = weaker reporter binding
Settings: Eterna round: R107
How it was run: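 In 100 mM Tris-HCl pH 7.5 with 80 mM KCl and 4 mM MgCl2, and without or with constant ligand, SNAP-549-labelled MS2 coat protein was titrated in twofold steps from 0.7 or 1.5 nM to 3 µM. Per-step times went from 0.8–1.5 h down to 10–20 min. The RNA switches were transcribed on-chip from Illumina sequencing clusters, and apparent KD is the per-design median of normalised cluster binding-curve fits.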

[1] = input ligand: theophylline 20 uM
[2] = input ligand: tryptophan 2.4 mM
[3] = input ligand: theophylline 2 mM

In the case of “UAUUUGGUGCGCGAGUGUUGGAUAAUUGAUACCAGUGAAGAAGAGCGCCCUUGGCAGCGAAUCCUAACAUGAGGAUCACCCAUGU [5.T]”, the “apparent KD of MS2 coat protein” value (input ligand: arginine 13.2 mM) is reported as 35.9 nM, the “apparent KD of MS2 coat protein” value [1] is reported as 55.3 nM and the “apparent KD of MS2 coat protein” value [2] is reported as 35.4 nM.

For “GCCUAGCAUCGAAGGAGCGGGCAUUACGCGCGAAAGCGCGAUACUUGAGGAACACCCAAGUCCCAGGUAGGUCGCGAUGCUAGGC [SSAB Alternative Aptamer #3 NP+V+V2]”, the “apparent KD of MS2 coat protein” value (input ligand: arginine 13.2 mM) was 31.4 nM, the “apparent KD of MS2 coat protein” value (input ligand: none) was 70.9 nM and the “apparent KD of MS2 coat protein” value [1] was 127 nM. The “apparent KD of MS2 coat protein” value [3] was 94.9 nM and the “apparent KD of MS2 coat protein” value [2] was 83.5 nM.

With “UUUGCACAUGAGGAUCACCCAUGUACAGAUACCAGCCUCAUCUACGGCCCUUGGCAGCUGAGACAAUGGUGACAUGAUGGGCUUU [Istein]” the “apparent KD of MS2 coat protein” value (input ligand: arginine 13.2 mM) was 16 nM, the “apparent KD of MS2 coat protein” value [1] was 20.4 nM and the “apparent KD of MS2 coat protein” value [2] was 12.3 nM.

For “UGGUACAUGGCGGCCGCCACUUCACGUAAAAUAAAAACUUGAGGAUCACCCAAGUAAUAAGUUGGGAGGACCGGGUCAUGUACCU”, the “apparent KD of MS2 coat protein” value (input ligand: arginine 13.2 mM) was 18.4 nM, the “apparent KD of MS2 coat protein” value [1] was 23.2 nM and the “apparent KD of MS2 coat protein” value [3] was 19.2 nM. The “apparent KD of MS2 coat protein” value [2] was 14 nM.

With “UUUUACAUGAGGAUCACCCAUGUGCGGCGCCGAGGACCGGUACGGCCGCCACUCGCAUGGGCAUGCCGCGAUAUCAUUCCUGAAC [theeternabot_sameState_MS2_Trp_A_43]” the “apparent KD of MS2 coat protein” value (input ligand: arginine 13.2 mM) was 53.6 nM, the “apparent KD of MS2 coat protein” value [1] was 249 nM and the “apparent KD of MS2 coat protein” value [3] was 306 nM.

With “GGGUGUGAUCCGGAUACCAGCGAACAUGAGGAUCACCCAUGUGACCUGAGAUCGGCUCUACGCCCUUGGCAGCCGCGGUCGCAGG [Same State Theophylline B GF13]” the “apparent KD of MS2 coat protein” value (input ligand: arginine 13.2 mM) was 23 nM, the “apparent KD of MS2 coat protein” value [1] was 19.5 nM and the “apparent KD of MS2 coat protein” value [3] was 15.4 nM. The “apparent KD of MS2 coat protein” value [2] was 12.4 nM.

With “GGGACAUGAGGAUCACCCAUGUACCGGUCCCGAGGACCGGUACGGCCGCCACUCGAUGACCUCAUAGUCUGCCUGAGCAGCAGAC [Abebeti]” the “apparent KD of MS2 coat protein” value (input ligand: arginine 13.2 mM) was 49.1 nM, the “apparent KD of MS2 coat protein” value [1] was 96.6 nM and the “apparent KD of MS2 coat protein” value [3] was 140 nM.

In the case of “CGGGUUAGGGCGGCCGCCACUGUGGCUACGGUACAUGAGGAUCACCCAUGUUUGUGGUUGAUCUACAGGACCGGGCCCUGACACG [Geusrean]”, the “apparent KD of MS2 coat protein” value (input ligand: arginine 13.2 mM) is reported as 440 nM, the “apparent KD of MS2 coat protein” value (input ligand: none) is reported as 102 nM and the “apparent KD of MS2 coat protein” value [1] is reported as 865 nM. The “apparent KD of MS2 coat protein” value [3] was 2560 nM and the “apparent KD of MS2 coat protein” value [2] was 203 nM.

In the case of “GCUGUACCAUGAAGGAGCGUCACGGAGUGCGAAUACACAUGAGGAUCACCCAUGUUUUUAUGGCAGGUAGGUCGCAUGGUACAGC [#02 Same State - Arginine B]”, the “apparent KD of MS2 coat protein” value (input ligand: arginine 13.2 mM) is reported as 22.8 nM, the “apparent KD of MS2 coat protein” value (input ligand: none) is reported as 22.3 nM and the “apparent KD of MS2 coat protein” value [1] is reported as 33.3 nM. For the same sequence, the “apparent KD of MS2 coat protein” value [3] was 28.4 nM and the “apparent KD of MS2 coat protein” value [2] was 22.9 nM.

With “UCGCUCUGGGUGGGAUCCGGAGAUGUGGAAGGAGCGCUGGUUACAGCAGGUAGGUCGCCAACGGACAUGAGGAUCACCCAUGUAC [Same State - Arginine A (Freestyle 16)]” the “apparent KD of MS2 coat protein” value (input ligand: arginine 13.2 mM) was 53.3 nM, the “apparent KD of MS2 coat protein” value (input ligand: none) was 41.3 nM and the “apparent KD of MS2 coat protein” value [1] was 49.4 nM. For the same sequence, the “apparent KD of MS2 coat protein” value [3] was 39.5 nM and the “apparent KD of MS2 coat protein” value [2] was 36.2 nM.

For “ACCGCAUCCGUAUAGGAUGCGGCCCAUGAAGGAGCGUGGGAAACCACAGGUAGGUCGCAUGACAUGAGGAUCACCCAUGUUUAUU [Matrix]”, the “apparent KD of MS2 coat protein” value (input ligand: arginine 13.2 mM) was 27.8 nM, the “apparent KD of MS2 coat protein” value (input ligand: none) was 44.2 nM and the “apparent KD of MS2 coat protein” value [1] was 52.7 nM. The “apparent KD of MS2 coat protein” value [3] was 40.9 nM and the “apparent KD of MS2 coat protein” value [2] was 33.9 nM.

With “UUCGUUGGCGAUCUGGGUUUACCAGAUCGGCGAGGACCGGUACGGCCGCCACUCGUGUUUUCUUUACAUGAGGAUCACCCAUGUU [SSTA #3]” the “apparent KD of MS2 coat protein” value (input ligand: arginine 13.2 mM) was 16.9 nM, the “apparent KD of MS2 coat protein” value [1] was 25.3 nM and the “apparent KD of MS2 coat protein” value [3] was 25.5 nM.

“AACGAGUGGCGGCCAUUGGGUGAUCCUCUACGAGGACCGGUACGGCCGCCACUCGAUAACAUGAGGAUCACCCAUGUGCCGAUAA [|T'-M'-Trp-Ms2|_Design10b]” was tested, and the “apparent KD of MS2 coat protein” value (input ligand: arginine 13.2 mM) was 42.3 nM, the “apparent KD of MS2 coat protein” value [1] was 164 nM and the “apparent KD of MS2 coat protein” value [3] was 240 nM.

For “GGAGCUACGUCGGCCGCCACUAGCGGGUAUUGCGUGUACAUGAGGAUCACCCAUGUAAUAUGGCCUAGGACCGGGACGUAGCUCC [Bison]”, the “apparent KD of MS2 coat protein” value (input ligand: arginine 13.2 mM) was 13.3 nM, the “apparent KD of MS2 coat protein” value (input ligand: none) was 16.7 nM and the “apparent KD of MS2 coat protein” value [1] was 22.4 nM. The “apparent KD of MS2 coat protein” value [3] was 16.9 nM and the “apparent KD of MS2 coat protein” value [2] was 16.5 nM.

For “AAAUAAACCUCGGCCGCCACUCGCCAUGAGGAUCACCCAUGUAACAUGAGGAUCACCCAUGUACAGAGGACCGGGAGGUCCUAGU [Same State Tryptophan B GF 13]”, the “apparent KD of MS2 coat protein” value (input ligand: arginine 13.2 mM) was 48.3 nM, the “apparent KD of MS2 coat protein” value [1] was 68.9 nM and the “apparent KD of MS2 coat protein” value [3] was 87.1 nM.
